Reference: patent US20170115291A1, “Activating JAK Kinase Biomarkers Predictive of Anti-Immune Checkpoint Inhibitor Response” (Dana-Farber Cancer Institute, Inc., priority 2014, published 2017)

Columns and labels:
[1] = system: CD4+ T cells and CD8+ T cells; assay: T cell proliferation assay, monocytes from blood pre- and 1 h post-MPDL3280A infusion; assay type: cell-based, human; settings: in the presence of circulating MPDL3280A (1 h post- vs pre-infusion), especially with monocytes primed with IFNγ
Description: PBMCs were isolated from patient blood samples immediately pre- and 1 h post-treatment with MPDL3280A, as well as from a normal donor by Ficoll and plated in a density of 4×10^6 cells/ml to a 96-well plate. After 2 h at 37° C. non-adherent cells (lymphocyte portion) were removed by pipetting and remaining adherent cells (monocyte portion) were cultured with or without 250 ng/ml IFNγ. At 24 h, non-adherent lymphocytes were labeled with CFSE. Monocytes (IFNγ treated or untreated) were harvested by 5 mM EDTA treatment and resuspended in fresh medium. Both lymphocytes and monocytes were then plated to a 96-well plate pre-coated with 10 μg/ml OKT3 antibody. Proliferation of CD4+ T cells and CD8+ T cells were monitored at 72 h post-stimulation by CSFE dilution.

PD-L1 = biological target: T1, PD-L1 (Homo sapiens, UniProt Q9NZQ7); assay: Phase 1 study of MPDL3280A in a patient with metastatic lung adenocarcinoma; assay type: in vivo
T1 construct: their tumor was also tested for PD-L1 expression and found to be positive; endogenous in cells; host or cells: tumour cells and immune cells (macrophages/monocytes) of a patient with metastatic lung adenocarcinoma
Description: The patient also consented to enroll on a phase 1 multicenter open-label dose-escalation study to evaluate the safety, tolerability, and pharmacokinetics of MPDL3280A (DF/HCC Protocol 11-314; NCT#01375842). […] As part of the inclusion criteria, their tumor was also tested for PD-L1 expression and found to be positive. The drug was administered as a single agent at a dose of 20 mg/kg every 3 weeks. […] Tumor response and evaluation was performed by physical examination and serial chest/abdomenipelvic CT scans, and target lesions were evaluated using RECIST criteria. Following treatment discontinuation at 1 year, the patient has continued to be monitored every 3 months by examination and CT scans.
Thus, after a temporary decline, the patient subsequently received sixteen cycles of MPDL3280A over a one-year period. […] They completed one year of therapy per protocol and remained without evidence of disease progression for an additional 12 months. At this point, they began to lose weight again and developed regrowth of the right adrenal mass (FIG. 1D), leading to re-initiation of MPDL3280A therapy.

[2] = Chemotherapy of the patient before MPDL3280A; assay type: in vivo, human; settings: one patient, single cycle
Text: He then developed a perirectal abscess and was switched to dose-reduced carboplatin and pemetrexed, together with bevacizumab for three additional cycles and was transitioned to maintenance pemetrexed and bevacizumab.

[3] = one patient, sixteen cycles over one year

T1 sequence (Q9NZQ7 19-290): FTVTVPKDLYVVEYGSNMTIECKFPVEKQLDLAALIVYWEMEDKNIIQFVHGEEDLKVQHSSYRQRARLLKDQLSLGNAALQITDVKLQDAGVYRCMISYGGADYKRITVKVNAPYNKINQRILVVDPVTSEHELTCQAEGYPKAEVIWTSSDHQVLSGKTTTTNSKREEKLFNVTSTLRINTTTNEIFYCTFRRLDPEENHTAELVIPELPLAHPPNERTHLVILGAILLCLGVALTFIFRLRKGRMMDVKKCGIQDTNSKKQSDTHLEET

Substance	T cell activation (proliferation of autologous or allogeneic CD4+/CD8+ T cells) [1]	Time without evidence of disease progression after completing one year of therapy (PD-L1; off therapy)	Tolerability (PD-L1; one patient, 20 mg/kg every 3 weeks, 16 cycles)	Tumor response by RECIST criteria (PD-L1; one patient, 20 mg/kg every 3 weeks, sixteen cycles over a one-year period)	Size of the paratracheal mass on serial chest CT scans (PD-L1; one patient, FIG. 1 panel C)	Right adrenal lesion on restaging scans after re-initiation of therapy (PD-L1; one patient, after another 3 months of MPDL3280A)	Body weight (PD-L1; [3])	Narcotic pain medication (PD-L1; [3])	Symptoms (PD-L1; [3])	Tolerability [2]
MPDL3280A: an engineered anti-PDL1 antibody (Genentech)	significantly greater	12 months	tolerated well other than a mild flare of their underlying chronic obstructive pulmonary disease	partial response	reduction in size	rapid improvement	return to pre-diagnosis body weight	discontinuation of all narcotic pain medication	complete resolutions of their symptoms	–
carboplatin and paclitaxel	–	–	–	–	–	–	–	–	–	tolerated poorly
